According to article PMC8310366:

Key:
[1] = target: DENV NS1 T29A mutant (dengue virus serotype 2 (DENV-2, strain 16681)); assay: SDS-PAGE under non-heated, non-reduced conditions with immunoblotting
[2] = target: DENV NS1 V6A mutant (dengue virus serotype 2 (DENV-2, strain 16681)); assay: as above
[3] = target: DENV NS1 S233A mutant (dengue virus serotype 2 (DENV-2, strain 16681)); assay: as above
[4] = target: DENV NS1 T230A mutant (dengue virus serotype 2 (DENV-2, strain 16681)); assay: as above
[5] = target: Dengue virus serotype 2 nonstructural protein 1 (DENV NS1), wild type (dengue virus serotype 2 (DENV-2, strain 16681)); assay: as above
[6] = target: Dengue virus serotype 2 nonstructural protein 1 (DENV NS1), wild type (dengue virus serotype 2 (DENV-2, strain 16681)); assay: SDS-PAGE under non-heated, non-reduced conditions with Coomassie staining

Substance: DENV NS1 T29A mutant (natural protein)
- stoichiometry N [1]: 2

Substance: DENV NS1 V6A mutant (natural protein)
- stoichiometry N [2]: 2

Substance: DENV NS1 S233A mutant (natural protein)
- stoichiometry N [3]: 2

Substance: DENV NS1 T230A mutant (natural protein)
- stoichiometry N [4]: 2

Substance: Dengue virus serotype 2 nonstructural protein 1 (DENV NS1), wild type (natural protein)
- stoichiometry N [5]: 2
- stoichiometry N [6]: 2
